Source: PMC11863148

Target: MERS-CoV nsp13 helicase (WT) (MERS-CoV, UniProt K9N7C7 5311-5908)
Assay: EMSA

Sequence of MERS-CoV nsp13 helicase (WT) (K9N7C7 5311-5908): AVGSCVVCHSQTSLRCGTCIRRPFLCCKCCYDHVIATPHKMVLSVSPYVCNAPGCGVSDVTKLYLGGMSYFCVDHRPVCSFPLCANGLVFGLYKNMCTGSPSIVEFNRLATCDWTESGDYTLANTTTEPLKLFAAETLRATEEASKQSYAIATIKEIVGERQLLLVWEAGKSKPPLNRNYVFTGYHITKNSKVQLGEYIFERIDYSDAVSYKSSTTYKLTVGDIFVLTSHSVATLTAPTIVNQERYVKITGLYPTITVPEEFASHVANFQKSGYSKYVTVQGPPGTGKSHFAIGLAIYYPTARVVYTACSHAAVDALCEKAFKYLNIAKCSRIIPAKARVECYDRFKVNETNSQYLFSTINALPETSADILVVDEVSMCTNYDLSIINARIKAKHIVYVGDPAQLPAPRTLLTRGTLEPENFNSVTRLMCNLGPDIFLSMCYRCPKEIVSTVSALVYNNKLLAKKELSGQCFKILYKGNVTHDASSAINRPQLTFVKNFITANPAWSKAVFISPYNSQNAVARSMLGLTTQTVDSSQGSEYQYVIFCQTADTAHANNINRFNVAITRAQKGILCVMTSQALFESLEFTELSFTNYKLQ

B1: EMSA partial duplex, 18 bp with 5' (dT)21 overhang (dsDNA)
DNA 1: TTTTTTTTTTTTTTTTTTTTTCTGATGTTAGCAGCTTCG
DNA 2: CGAAGCTGCTAACATCAG
B1: binds.
